The target of assay [1] is T1, ADO-C220A, N-terminally His-tagged and biotinylated (human, UniProt Q96SZ5 1-270, C220A, biotin (biotinylated during expression)).
T1 construct: 2-aminoethanethiol dioxygenase (ADO), human, UniProt Q96SZ5, full length, site-directed mutant; source: E. coli Rosetta2(DE3), purified (Ni-NTA, SEC); not shown: biotinylation tag (from the vector pQE80L-Navi), N-terminal, kept
T1 sequence (looked up): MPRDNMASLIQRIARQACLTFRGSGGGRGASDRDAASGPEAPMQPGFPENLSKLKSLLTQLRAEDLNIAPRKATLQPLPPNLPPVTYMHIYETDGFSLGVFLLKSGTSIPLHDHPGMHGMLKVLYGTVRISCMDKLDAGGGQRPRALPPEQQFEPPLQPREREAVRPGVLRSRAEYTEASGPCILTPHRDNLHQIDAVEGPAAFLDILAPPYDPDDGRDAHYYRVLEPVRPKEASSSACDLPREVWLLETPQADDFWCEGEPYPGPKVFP
Nature of the assay: SPR; biotinylated ADO or ADO mutant immobilised on a Biotin CAP chip (~2500-3000 RU), substrate peptide injected; Biacore T200, 4 °C; 20 mM HEPES pH 7.5, 500 mM NaCl, 10 mM DTT, 0.1% tween-20; 50 µL/minute; multi-cycle or single-cycle mode not given; each cell is one of three independent measurements. As to conditions: both partners purified. On the technique in general: SPR reads the build-up and loss of mass on a sensor chip optically.

Assay [2] has as its target T2, ADO-I109A, N-terminally His-tagged and biotinylated (human, UniProt Q96SZ5 1-270, I109A, biotin (biotinylated during expression)).
T2 construct: 2-aminoethanethiol dioxygenase (ADO), human, UniProt Q96SZ5, full length, site-directed mutant; source: E. coli Rosetta2(DE3), purified (Ni-NTA, SEC); not shown: biotinylation tag (from the vector pQE80L-Navi), N-terminal, kept
T2 sequence (looked up): T1 sequence (looked up) with I109A, A220C
The description is as above. As to conditions: both partners purified.

Changes are numbered by the printed parent chain. “And” between values parts separate entries of the source, which are not always exact repeats. Equal values may be shown once.

The results in this text go back to article PMC12098869, “An mRNA-display derived cyclic peptide scaffold reveals the substrate binding interactions of an N-terminal cysteine oxidase” (Nature Communications, 2025).

B1: IL32(2-15), synthetic peptide corresponding to the methionine excised N-terminus of IL32, residues 2-15 (peptide, UniProt P24001 2-15, looked up)
peptide: CFPKVLSDDMKKLK
notes: interleukin 32 (IL32), residues 2-15 (N-terminal Cys exposed); also called 14-mer IL32; source: synthetic peptide
With B1, the Kd (commonly the free concentration of one partner at which half of the binding sites on the other are occupied at equilibrium, for simple one-to-one binding) is 1.44 µM and 1.18 µM and 1.43 µM in assay [1]; 14.2 µM and 15.1 µM and 18.4 µM in assay [2].
